Results reported in PMC4149556.

Target: T1, Rev (HIV-1) (UniProt P04618)
T1 sequence: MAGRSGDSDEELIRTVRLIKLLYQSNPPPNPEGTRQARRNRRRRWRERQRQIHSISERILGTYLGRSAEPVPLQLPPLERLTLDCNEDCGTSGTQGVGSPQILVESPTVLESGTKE
Assay: EMSA
Conditions: native 4% PAGE; constant 32P-RRE RNA with 20, 40 or 80 ng Rev; buffer, salt, pH and temperature not given

For “GAGAAGAGUGGUGCAGAGAGAAAAAAGAGCAGUGGGAACAAUAGGAGCUAUGUUCCUUGGGUCCUUGGGAGCAGCAGGAAGCACUAUGGGCGCAGCGUCAAUAACGCUGACGGUACAGGCCAGACAAUUACUGUCUGGUAUAGUGCAACAGCAAAACAACUUGCUGAGGGCUAUUGAGGCGCAACAACAUCUGUUGCAACUCACAGUCUGGGGCAUCAAGCAGCUCCAGGCGAGAGUCCUGGCUGUGGAAAGAUACCUAAGGGAUCAACAGCUCCUAGGGAUUUGGGGUUGCUCUGGAAGACUCAUUUGCACCACUGCUGUGCCUUGGAAUG [RREWT (40Q-45L)]”, the binding signal (% RNA shifted) was 96.
